We go through two molecules from patent publication US20220056125A1 (CEPHALON, published 2022).

One assay concerns the target T1, rat PAR-2 on cells (rat, UniProt Q63645 26-397).
T1 construct: transiently transfected CHEM-1 cells
T1 sequence: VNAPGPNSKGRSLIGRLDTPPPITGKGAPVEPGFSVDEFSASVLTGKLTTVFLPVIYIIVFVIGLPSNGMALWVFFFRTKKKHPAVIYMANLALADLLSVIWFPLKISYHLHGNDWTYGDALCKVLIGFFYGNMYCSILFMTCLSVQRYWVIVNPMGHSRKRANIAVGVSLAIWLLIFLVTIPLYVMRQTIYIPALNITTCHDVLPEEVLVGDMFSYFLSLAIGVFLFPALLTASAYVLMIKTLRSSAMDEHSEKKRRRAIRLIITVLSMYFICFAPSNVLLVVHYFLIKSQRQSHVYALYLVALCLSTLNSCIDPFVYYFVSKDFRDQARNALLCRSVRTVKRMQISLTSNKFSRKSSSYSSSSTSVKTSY
In words: flow cytometry, transiently transfected CHEM-1 cells. On the procedure:
The cells were plated in 96 well plates at 2×10⁵ cells/well. Following a wash step using Phosphate buffered saline (PBS), the primary antibody (anti-PAR-2 antibody) was added at a concentration of 10 μg/mL in 50 μL of FACS buffer (0.5% w/v BSA in PBS) to each well and incubated for 10-15 mins. Following a wash step, secondary antibody (anti-human Fc-FITC) was added to the wells at 1:200 dilution in 50 μL for 10-15 mins. Following a washing step, the cells were re-suspended in fluorescence-activated cell sorting (FACS) buffer. The flow cytometry analysis was performed on an Intellicyt iQue screener. Gates were drawn around the different intensities of encoder dye-positive cells and these populations were analyzed separately from each other and the unlabeled cells for binding by the primary antibody.
P24E1102 binding was also assessed by flow cytometry, as described in Example 1 supra, using PAR-2 transiently transfected into CHEM-1 cells. In addition to human, cynomolgus, mouse and rat, guinea pig, rabbit and dog PAR-2 were also tested. P24E1102 bound well to human and cynomolgus PAR-2 but minimally to all other species tested.

For assay [1], the target named is T2, human PAR-2 (human, UniProt P55085 26-397).
T2 sequence: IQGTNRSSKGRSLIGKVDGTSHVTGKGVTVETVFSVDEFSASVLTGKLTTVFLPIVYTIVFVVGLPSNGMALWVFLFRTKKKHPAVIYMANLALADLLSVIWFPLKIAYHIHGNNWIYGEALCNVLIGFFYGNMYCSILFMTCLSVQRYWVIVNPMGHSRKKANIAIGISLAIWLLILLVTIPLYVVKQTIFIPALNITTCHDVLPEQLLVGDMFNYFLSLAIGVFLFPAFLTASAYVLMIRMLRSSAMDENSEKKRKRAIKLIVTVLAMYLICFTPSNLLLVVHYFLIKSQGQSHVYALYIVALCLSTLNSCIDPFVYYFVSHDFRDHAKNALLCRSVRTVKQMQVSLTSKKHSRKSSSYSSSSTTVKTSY
As to the kind of experiment: cell-based or functional assay.

Assay [2] concerns the target T2, human PAR-2. As to the kind of experiment: cell-based or functional assay. This is another data set of the same source.
The next assay addresses T3, recombinant human PAR-2 (human, UniProt P55085 37-397, limits assumed).
T3 construct: detergent-solubilised preparation used in SPR; also called recombinant PAR-2
T3 sequence: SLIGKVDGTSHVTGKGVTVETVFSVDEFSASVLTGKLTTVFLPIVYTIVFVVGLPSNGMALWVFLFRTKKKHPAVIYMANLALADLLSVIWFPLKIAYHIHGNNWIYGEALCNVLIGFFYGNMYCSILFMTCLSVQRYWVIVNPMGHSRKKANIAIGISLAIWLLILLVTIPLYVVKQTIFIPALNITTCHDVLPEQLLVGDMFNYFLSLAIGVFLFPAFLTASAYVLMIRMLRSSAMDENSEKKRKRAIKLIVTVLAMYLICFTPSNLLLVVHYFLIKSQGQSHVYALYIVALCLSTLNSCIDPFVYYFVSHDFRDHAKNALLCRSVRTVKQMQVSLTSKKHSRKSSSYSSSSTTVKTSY
As to the kind of experiment: SPR, antibody captured on Protein A chip, recombinant PAR-2 injected. On the procedure:
(§1) Selected antibodies were tested for binding to various species of PAR-2 using surface plasmon resonance (SPR) assay for antibody binding to recombinant PAR-2, except that human PAR-2 was substituted with PAR-2 from cynomolgus monkeys, rat, or mice.
(§2) Antibodies were transfected and harvested as described in Example 3, supra. Antibodies in supernatant were diluted 1 in 50-250 in running buffer (50 mM HEPES, 250 mM NaCl, 0.1% w/v LMNG, 0.025% w/v CHAPS, 0.005% CHS, pH 7.4) and purified antibodies were diluted to 0.5 ug/mL in running buffer A Series S Protein A chip was docked into the instrument (Biacore S20) and the system was primed four times with running buffer prior to the run. Recombinant human PAR-2 was diluted to 0-5 μg/mL in running buffer. The surface was regenerated using 50 mM NaOH. The antibody was captured to between 20 to 110 Relative Units on the chip surface. The sample (recombinant PAR-2) was injected for 1 min at 30 μl/min, followed by dissociation phase of 180s. Sensorgrams were double referenced by buffer subtraction and by reference cell subtraction. Binding curves were then fit to a 1:1 binding model with kinetic constants derived from curve fits. Antibodies were ranked by dissociation rate (kd) when only one concentration of antigen was injected. Antibodies were ranked by their equilibrium dissociation constant (KD) when multiple concentrations of PAR-2 were injected. […]

In assay [3] the target is T4, recombinant cynomolgus monkey PAR-2 (cynomolgus monkey).
T4 construct: also called cynomolgus PAR-2
T4 sequence (Q863Y8 other isoform, or with tags, fused parts or gaps): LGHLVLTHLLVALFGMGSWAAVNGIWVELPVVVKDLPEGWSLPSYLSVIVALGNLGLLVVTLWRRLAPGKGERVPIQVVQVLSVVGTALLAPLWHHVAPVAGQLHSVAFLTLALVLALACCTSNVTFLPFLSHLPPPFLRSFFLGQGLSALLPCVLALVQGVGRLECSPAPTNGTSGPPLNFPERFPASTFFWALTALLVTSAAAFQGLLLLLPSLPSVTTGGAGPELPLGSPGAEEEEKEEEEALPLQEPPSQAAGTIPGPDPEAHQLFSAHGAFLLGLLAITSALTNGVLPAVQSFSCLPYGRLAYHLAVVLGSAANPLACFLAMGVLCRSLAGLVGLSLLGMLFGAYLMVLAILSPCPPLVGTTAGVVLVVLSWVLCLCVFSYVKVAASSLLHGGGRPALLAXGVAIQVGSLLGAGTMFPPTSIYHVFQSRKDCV
Described as above. As for the experimental part: as §1, §2

For assay [4], the target named is T2, human PAR-2. In words: cell-based or functional assay. This is another data set of the same source.
The target of assay [5] is T2, human PAR-2. As to the kind of experiment: cell-based or functional assay. This is another data set of the same source.
For assay [6], the target named is T2, human PAR-2. As to the kind of experiment: cell-based or functional assay. The source holds these as a separate data set.
Assay [7] deals with T2, human PAR-2. In words: cell-based or functional assay. This is another data set of the same source.
Assay [8] addresses T2, human PAR-2. In words: cell-based or functional assay. This is another data set of the same source.
In another assay the target is T5, human PAR-1 (human, UniProt P25116 22-425).
T5 construct: also called huPAR-1
T5 sequence: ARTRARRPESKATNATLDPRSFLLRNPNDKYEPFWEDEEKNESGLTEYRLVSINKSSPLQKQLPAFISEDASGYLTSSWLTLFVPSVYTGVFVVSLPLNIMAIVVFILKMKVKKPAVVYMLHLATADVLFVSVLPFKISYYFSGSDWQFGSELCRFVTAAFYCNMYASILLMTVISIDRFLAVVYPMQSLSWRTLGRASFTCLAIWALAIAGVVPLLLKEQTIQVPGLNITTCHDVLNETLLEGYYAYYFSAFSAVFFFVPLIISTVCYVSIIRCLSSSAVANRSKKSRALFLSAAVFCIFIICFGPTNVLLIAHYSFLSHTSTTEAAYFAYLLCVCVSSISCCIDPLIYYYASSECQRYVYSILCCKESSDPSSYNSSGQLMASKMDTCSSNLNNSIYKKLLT
In words: flow cytometry, transfected Expi293F cells.

B1: P24E1102 (antibody, human IgG4 S228P, kappa, V domains shown)
VH: QVQLVQSGAEVKKPGSSVKVSCKASGFSLSSYAISWVRQAPGQGLEWMGVIWGNQNVYYAQKFQGRVTITADESTSTAYMELSSLRSEDTAVYYCARWKGYKDYPFDYWGQGTLVTVSS
VL: EIVLTQSPATLSLSPGERATLSCRASQNVYKWLDWYQQKPGQAPRLLIYNANTRATGIPARFSGSGSGRDFTLTISSLEPEDFAVYYCQQHHSGWTFGGGTKVEIKR
notes: human IgG4 S228P K447del / kappa; also called Anti-PAR-2 (P24E1102); TEV-56192 P24E1102
Regarding B1, the binding result in the assay with rat PAR-2 on cells was “binds”. Further, the “PAR-2 β-arrestin cell based assay IC50, 2 µM SLIGKV” value in the assay with human PAR-2 [1] was 1.4 nM. For the same molecule, in the assay with human PAR-2 [2], the “Calcium flux IC50” value is 17.4 nM, the “IL-6 release in A549 cells IC50” value turned out to be 5 nM and the “IL-8 release in A549 cells IC50” value amounted to 4.62 nM. In the assay with recombinant human PAR-2, the dissociation constant Kd fell in the range of 0.433 to 0.946 nM. In addition, the Kd in assay [3] turned out to be 4.45 nM. The “IC50, PAR-2 activating ligand-induced calcium flux in A549 cells” value with human PAR-2 [4] stood at 13.2 nM. Moreover, in the assay with human PAR-2 [5], the “IC50 mean, calcium flux at SLIGKV EC80, Nomad line” value stood at 2.07 nM and the “IC50 mean, β-arrestin at SLIGKV EC80, Nomad line” value is 5.38 nM.

B2: Ab309 (antibody, human IgG4, V domains shown)
VH: QVQLKESGPGLVQPSQTLSLTCTVSGFSLNSYGVIWARQPPGKGLDWMGVIWGNGNTYYNSDLKSRLSISRDTSKSQVFLKMNNLQAEDTALYFCARWRGYKDYPFDYWGQGVMVTVSS
VL: DIQMTQSPSFLSASVGDRVTFNCKASQNIYKYLDWYQQKLGEAPKLLIYNTNSLHTGIPSRFSGSGFGTDFTLTISSLQPEDVATYFCLQHNSGWTFGGGTKLELR
For the molecule B2, the “IC50, PAR-2 calcium flux assay (trypsin EC80)” value in the assay with human PAR-2 [6] turned out to be 6.7 nM. In addition, in the assay with human PAR-2 [7], the “PAR-2 calcium flux cell assay IC50” value was found to be 8.6 nM and the “PAR-2 β-arrestin cell assay IC50, 1 µM SLIGKV” value was found to be 4.4 nM. Also, in the assay with human PAR-2 [8], the “IC50, PAR-2 β-arrestin cell assay” value came out at 1.6 nM. In the assay with human PAR-1, the binding result is given as “no binding (tested: 10 µg/mL)”.
